Experimental data published in the DeepSol protein solubility set.

Test: soluble on expression in E. coli; label from the status in PepcDB or PDB records

Sequence | soluble on expression in E. coli
MIIPALDLIDGTVVRLHQGDYARQRDYGNDPLPRLQDYAAQGAGVLHLVDLTGAKDPAKRQIPLIKTLVAGVNVPVQVGGGVRTEEDVAALLKAGVARVVIGSTAVKSPDVVKGWFERFGAQALVLALDVRIDEHGTKQVAVSGWQENSGVSLEQLVETYLPVGLKHVLCTDISRDGTLAGSNVSLYEEVCARYPQIAFQSSGGIGDIDDIAALRGTGVRGVIVGRALLEGKFTVKEAIQCWQNV | not soluble
MIIPEYGRTLTPEEWRPVVDEMLEATHIIFTTHENSDGDGLGSQVALALALKALGKEVAIFNPTEVPPNYLFLKELHEINLFRDRDEESMQEFFLADLLVVLDANLHDRIGRLWPHVEFARQMSRLKVLCIDHHLEPEDFADITVCETYASSTGELVCDLVTALELRTGQQLFTPEVASALYAAIMTDTGSFRFPKTTPYTYRLAGMLVEKGADPELVYDRIYNAL | not soluble
MIIQIEEYFIGMIFKGNQLVRNTIPLRREEIFNFMDGEVVSNPEDEHLKVAEIILKLYFAEIDDKKVRELISYKLEVPEFTKKVLDIVKDIEFGKTLTYGDIAKKLNTSPRAVGMALKRNPLPLIIPCHRVVAKNSLGGYSYGLDKKKFILERERLNMVSFKFNKVY | soluble
MIISAASDYRAAAQRTLPPFLFHYIDGGAYAEYTLRRNVEDLSQVALRQRVLKNMSDLSLETTLFNETLSMPVALAPVGLCGMYARRGEVQAAAAADAKGIPFTLSTVSVCPIEEVAPTIKRPMWFQLYVLRDRGFMRNALERAKAAGCSTLVFTVDMPTPGARYRDAHSGMSGPNAAMRRYWQAVMHPKWAWDVGLNGRPHDLGNISAYLGKPTGLEDYIGWLANNFDPSISWKDLEWIREFWDGPMVIKGILDPEDARDAVRFGADGIVVSNHGGRQLDGVLSSARALPAIADAVKGDIAILADSGIRNGLDVVRMIALGADTVLLGRAYLYALATAGKAGVANLLDLIEKEMKVAMTLTGAKSISEISGDSLVQELGKSLPAALAPMSKGDAA | not soluble
MIITLFVMVSGNKVKYEGSGKSGLWMSNLEKSDKTSIGPNYFLNLYWQGSKKEEKWTVVERITLYVDGEKYQDDNVDEYDLSEYTGDEMPGGGRMEDHISTFDYMPEDEVIGHDVLVKVEWRTGQKKQTEAIKLHKKPWYKKLEHHHHHH | not soluble
MIKIEINGIDEIIAKLNLIANKTENKTDLMRNIAGTMESAVQTNFEVGGRPKWLGIKHRKGVPLVDSENLMDSITSAYDNDTAFVGTNEEYAAIHQFGGMAGRGCKVKIEARPFLTLTEQDKSDILEEITDYWQRLLQ | not soluble
MIKIYNGDKLTRQPFFIKLINYLQIHDDVTLRQIKRNFADTEHLERSIEDYVQAGYVLRENKHYYNAFELLENLDGLTLDSQIFVDDQSSIYQDLLALTFETYLSNQTNAALIIEKTDISRDALTLSNYFFKLNENFPLSRKQKPLYHLLGDVNPNYALKYMTTFLLKFWGKDVVKQKRPDIFVQALVLLGYLEQVGKQSYCLKMTFDKEKLIFAS | not soluble
MIKLSEKGVFLASNNEIIAEEHFTGEIKKEEAKKGTIAWSILSSHNTSGNMDKLKIKFDSLASHDITFVGIVQTAKASGMERFPLPYVLTNCHNSLCAVGGTINGDDHVFGLSAAQRYGGIFVPPHIAVIHQYMREMMAGGGKMILGSDSHTRYGALGTMAVGEGGGELVKQLLNDTWDIDYPGVVAVHLTGKPAPYVGPQDVALAIIGAVFKNGYVKNKVMEFVGPGVSALSTDFRNSVDVMTTETTCLSSVWQTDEEVHNWLALHGRGQDYCQLNPQPMAYYDGCISVDLSAIKPMIALPFHPSNVYEIDTLNQNLTDILREIEIESERVAHGKAKLSLLDKVENGRLKVQQGIIAGCSGGNYENVIAAANALRGQSCGNDTFSLAVYPSSQPVFMDLAKKGVVADLIGAGAIIRTAFCGPCFGAGDTPINNGLSIRHTTRNFPNREGSKPANGQMSAVALMDARSIAATAANGGYLTSASELDCWDNVPEYAFDVTPYKNRVYQGFVKGATQQPLIYGPNIKDWPELGALTDNIVLKVCSKILDEVTTTDELIPSGETSSYRSNPIGLAEFTLSRRDPGYVSRSKATAELENQRLAGNVSELTEVFARIKQIAGQEHIDPLQTEIGSMVYAVKPGDGSAREQAASCQRVIGGLANIAEEYATKRYRSNVINWGMLPLQMAEVPTFEVGDYIYIPGIKAALDNPGTTFKGYVIHEDAPVTEITLYMESLTAEEREIIKAGSLINFNKNRQM | soluble
MIKLSSITAHILDIWHRRNSRSYIAHLRSLGIRIGDGCIFRDPLTTRIDVSRPALVSIGSNVDMNTYFQILTHDWASFVFRNKYHDFVNSSGRVEIGSNIYIGTNVIVLRGVTIGDNCVIGAGSVVTHDIPANSVAVGAPCRVVCSLEHHHHHH | soluble
MIKRNLLVIGLAVMLSACGFQLRGTGATELSVKEMDVSARNAYGPTVLQLREVLERSGVNVHAGAPYRLVLTNEQERERSATYNSGNRTAEYELTTKLDYSILGLNNLELMSDKLEVRKVYVRDGSNITGSEQEAKRAREEMRRDLVNAMVVRLQMLSPPQLDELQRKADERAQAEAAALEAARRQQAETPQQSPLEVPGN | not soluble
MIKRNLLVMGLAVLLSACGFQLRGTGTQELSIKELDLSARDAYGTTIKMLKQQLESSGVRVHAGAPYKLVLLSEENSQRTLSYTGGGNSAEYEIGTTLRYEILTHDNLHLLDDKLEVQKVFLHDGNNITGSDQESSETRKEMRRDLIQRMLIRLQLLTPEQLAQLQATAEAKAKAEADALEAARKAEAETPQQSPMELPNQLEHHHHHH | soluble
MILFPQNEDTVMSEMVAFRQGTSMPSRETILHYVVETVNQITELEPALHLLPWSGVNSAIYEQRFAQCYDEGLCAAQTSAPNVPQGILPSTDWAQGIGLLCFAAGYMSAGERPLTHNQLCDFVKQAAVGLSPIEGEAASGFSTVRSIALPVFRRLQRDGHASRVLLLQTLLHLVAWKSASQYARQQAQRLLWMGGILGEGGEHSLLVLDKALREEAVGEKSLPALLIFTSFLAHFPAGPVFID | not soluble
MILKALPNESMPREKLLQRGPQALTDAELLAIFLRTGTQGMNVIELADFLIQDFGSLRQLFSASEQEFCQHKGLGQAKYVQLQAVLEMTQRYLAETLKRGDALTSPEQTKLYLSSILRDRQREAFYILFLDNQHRVIKDEILFEGTLDAASVYPREVVKRALHHNAAALILAHNHPSGVAEPSQADRRITRRLIDALALVDIRILDHFVIGDGESVSFAERGWI | not soluble
MIMFNYQQTSQSCVKCGKCIPSCTIYNIHPDEVTSPRGFIDLLGAYQRGELELDKNAKDIFEKCFLCTNCTYVCPNLLPTDQVIENVRAEIAQKFGIAWFKRAYFFLLRNRWLEHHHHHH | soluble
MIMGLENLKPAKGSVKKIKRVGRGQGSGMGKTATRGGKGQTARTGYKAKRGFEGGQQPLQRRLPKIGFRTKDSHIYSINVEKNEAIKNLEEITFSSLRALHHFPLYIEGVKLIGKDAKNLASKIKDERIKTSGQKLEHHHHHH | soluble
MIMQEKIKEIASRVRELRELSEISVEKMAEYLQVSKEIYEKYENGTEDIPASILFEIAHRLQVDMATLLTGEEPRMNVFTVTRSGKGVSVERREQYRYQNLAEKFIHKKAEFFIVTVDPKPQGTKPDTNSHPGQEFNYVLEGSLKVYIHHNEIILNEGDSIYFDSNYQHAMEAMNGKTAKFLAVIM | not soluble
MINSKVKPQAVVADAHEDTIRSLYMESLHLVERLHRRLLDVIKDEFDRQGRDDVNAVQALLLFNIGNSELTAGELRSRGYYLGSNVSYNVKKLVDLGLINHQRSRVDRRSVRISLTEEGQAIAETVARLYERHVGSIEKVGGIGTGEFSEMNKLLQRLDRFWNDSIAYRL | not soluble
MIPEPDILVVGGGLGGVAAALAACRAGRSVVLTEETDWIGGQLTSQAVPPDEHPWVEQFGTTATYRRLREGIRQYYRQWYPLRAEAAALTDLNPGAGRVSKLCHEPRVALAVLEGMLAPHRAAGRLTVLTEHRPVAAETDNDVVRAVTLEDLRDGTRRTVPARYVLDATETGELLHLAGVEHVNGAESRAEFDEPHAPDRAQPGNQQGITVCFALSHHEGEDHTIDRPADYDFWRDYKPDFWPGPLLGFEAPDPRTLEPVPRTFEPNPDLDPLAVSADQSADAGDKELWGFRRILARKLHTDGAFDSDITLVNWPLNDYWLKPYIGQEAEALREARQLSLSVLYWLQTEAPRTDGGTGFPGLRPRPDVTGTADGLAKAAYVRESRRIKAVTTVTEHDVSIDLLGPYGRTRHRDSVGVGNYRIDLHPSTGGDGYVDIGSVPFEIPLGALVPRRVRNLLPAGKNLGTTHITNGCYRLHPVEWNVGEVAGALAAHCLAEDVEPHQVQAEDKRFEEFARVLDHDGVQRHWPDVRGYLEHHHHHH | not soluble
MIPKSTGYLADLNIHWKNYIQYLHKIEVAPKTKLQLLHDVANRIFIVESGSVRMGFEKDGKDITLQFFFEDELVASVESLFNQTPSKYFIETIEHSTIYYLTKEMLEVMALKLPEMANITQDILMSRLIYYSNHLHSYISETPEQRFNKLIETRPYIFMRVSQRHIASYLGITNVSLSRIKARKSVVYDQQPATVSVAEADNEEYLKS | not soluble
MIPLLGIISLSLNISGPKYRLEMGLGGKVAVDSTFSNEGVQKATEPNGTKVTYYYGGESKGFIEFSSDWKLKINEKCDINFGPRIKLLNISHIAKNIFFFLGITAGAGFEFNYNIRENVKFYTGIDGLIGMGTFMNLNNSSSKDTESKKISVIYDFIPESNVTVGTKINDKYNVGLFVDILQGYFGLKAGYTF | not soluble
MIQARSRRPLSCSLRSSSQNPIATTFLTGGKMDRIVRQILVKLLGGERSVYELIYYQDASLREFFELLNSLRDEGLIEVESGKVRITEKGREVAEKERLKFCGDVECECCEGTGLSINPYFKEILQKYSEIAKDRPETIEVYDQGFISLEGVIRRVEFVYDRGDLNGRIFVVGDDDLFGIAASLTGMPEKVAVVDIDERLINFINRVAEEYSLNVEAFVYDVQQAFPDELKRKFDVFVTDPVETIPGLKLFLSRGVSTLKGVGGAGYFGITTLEASRRKWYEIQRMIHDMGFIITDLRRRFNVYPEDEKNFFRFQEKLPIVRHLQAKVDFNWYNSTLFRIEAVKEPKPIVEGEMIIDEKVYKDDESWATPY | not soluble
MIQFKNISKHYQLKGQTIHALDQINLDIPAGSIFGIIGYSGAGKSTLIRLINLLERPTHGQIIINQKDFTALNAQSLRQERANIGMIFQHFNLLQTKTVAANIEMPLKLLGYSKIEREKRLMELLDFIDLTHKKDAFPDELSGGQKQRVGIARALANHPKILLCDEATSALDPQTTKSVLALLKKINKEQGITIVMVTHEMDVIESICDHVAVMESGHVIETGPTVEIFSNPQHPTTKTFIQTVLQQHLPVNILSKLEHQHHHSIYRLQFLGKSAQEPVIQSMIKQFDISLNILFANMTEIDGTVIGQMFVQLLGDDTLIQQAIEFLERHGVSVNQSGEQV | not soluble
MIQKGLEGVKICESSICYLDGINGRLYYRGIPVEELAEKSTFEETAYFLWYGKLPTKSELEEFKRKMADYRELPAEALGILYHLPKNLHYIDVLKIFLSIHGSMDGNDEDLREKAIRVASVFPTILAYYYRYSKGKELIRPRKDLSHVENFYYMMFGERNEKIRLLESAFILLMEQDINASTFAALVIASTLSDLYSCIVGALGALKGPLHGGASEKVPPMLEEIGSEDRVEEFVQKCLKEKRKIMGFGHRVYKTYDPRAVFLKRVLQEHFPDSKLFRIASKLEEYIVSNKIKNIYPNVDLYSSVLFEELGFPRNMFTALFATARVVGWTAHVIEYVSDNKLIRPTSEYVGPMDVEYIPIERRDENG | soluble
MIQKINILDSSQSGVKNGADSEAVLAALIEHLELINPSGRLSQNTRSAMLQLREEEWSEFFFWLLNSLECLDYVIINLTPESKKTLMSEHRNNIQVAIDALYSQRRRKSPGDESETLTRRNDAIFGNHVWQTFAQYFPPGLEKPSV | not soluble
